In publication doi:10.1101/2021.09.16.460650 (bioRxiv, 2021):

B1: calreticulin (natural protein, human (endogenous in DLD-1), UniProt P27797 18-417, looked up)
chain: EPAVYFKEQFLDGDGWTSRWIESKHKSDFGKFVLSSGKFYGDEEKDKGLQTSQDARFYALSASFEPFSNKGQTLVVQFTVKHEQNIDCGGGYVKLFPNSLDQTDMHGDSEYNIMFGPDICGPGTKKVHVIFNYKGKNVLINKDIRCKDDEFTHLYTLIVRPDNTYEVKIDNSQVESGSLEDDWDFLPPKKIKDPDASKPEDWDERAKIDDPTDSKPEDWDKPEHIPDPDAKKPEDWDEEMDGEWEPPVIQNPEYKGEWKPRQIDNPDYKGTWIHPEIDNPEYSPDPSIYAYDNFGVLGLDLWQVKSGTIFDNFLITNDEAYAEEFGNETWGVTKAAEKQMKDKQDEEQRLKEEEEDKKRKEEEEAEDKEDDEDKDEDEEDEEDKEEDEEEDVPGQAKDEL
B2: N-terminally arginylated calreticulin (natural protein, human (endogenous in DLD-1), UniProt P27797 18-417, looked up)
chain: REPAVYFKEQFLDGDGWTSRWIESKHKSDFGKFVLSSGKFYGDEEKDKGLQTSQDARFYALSASFEPFSNKGQTLVVQFTVKHEQNIDCGGGYVKLFPNSLDQTDMHGDSEYNIMFGPDICGPGTKKVHVIFNYKGKNVLINKDIRCKDDEFTHLYTLIVRPDNTYEVKIDNSQVESGSLEDDWDFLPPKKIKDPDASKPEDWDERAKIDDPTDSKPEDWDKPEHIPDPDAKKPEDWDEEMDGEWEPPVIQNPEYKGEWKPRQIDNPDYKGTWIHPEIDNPEYSPDPSIYAYDNFGVLGLDLWQVKSGTIFDNFLITNDEAYAEEFGNETWGVTKAAEKQMKDKQDEEQRLKEEEEDKKRKEEEEAEDKEDDEDKDEDEEDEEDKEEDEEEDVPGQAKDEL
modifications: arginyl group added at the mature (signal sequence removed) NH2-terminus, Glu-18

Molecular target: the molecule itself
Assay: non-reducing SDS-PAGE with western blot

Row | Protein | stoichiometry N
1 | B1 | 2
2 | B2 | 2
